Patent publication US20200182882A1

Key:
[1] = biological target: CD3 (TCR complex subunit) on T cells (Jurkat reporter cells; human PBMC T cells) (human) (UniProt P07766); assay: cell-based or functional assay
[2] = biological target: T1, CD20 on a CD20 expressing target cell line (Wil2-S) (UniProt P11836); assay: cell-based or functional assay
T1 sequence (looked up): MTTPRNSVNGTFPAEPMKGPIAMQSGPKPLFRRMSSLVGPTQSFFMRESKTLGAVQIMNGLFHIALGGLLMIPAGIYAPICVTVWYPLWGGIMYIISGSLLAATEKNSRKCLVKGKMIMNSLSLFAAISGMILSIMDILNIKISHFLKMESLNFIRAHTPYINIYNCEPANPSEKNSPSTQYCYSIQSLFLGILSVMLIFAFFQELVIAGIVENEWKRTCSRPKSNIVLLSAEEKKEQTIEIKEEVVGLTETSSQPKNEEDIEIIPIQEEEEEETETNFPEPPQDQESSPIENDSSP

UniProt P07766, sequence (P07766 23-207, one chain of several): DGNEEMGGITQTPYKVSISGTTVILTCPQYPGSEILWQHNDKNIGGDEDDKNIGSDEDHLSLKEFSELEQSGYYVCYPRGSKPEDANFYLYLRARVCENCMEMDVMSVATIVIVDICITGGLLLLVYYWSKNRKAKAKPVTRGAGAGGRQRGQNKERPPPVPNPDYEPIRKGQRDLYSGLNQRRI

B1: αCD20/αCD3 TDB (bispecific antibody, from a related filing, V domains shown)
VH 1: EVQLVESGGGLVQPGGSLRLSCAASGYTFTSYNMHWVRQAPGKGLEWVGAIYPGNGDTSYNQKFKGRFTISVDKSKNTLYLQMNSLRAEDTAVYYCARVVYYSNSYWYFDVWGQGTLVTVSS
VL 1: DIQMTQSPSSLSASVGDRVTITCRASSSVSYMHWYQQKPGKAPKPLIYAPSNLASGVPSRFSGSGSGTDFTLTISSLQPEDFATYYCQQWSFNPPTFGQGTKVEIKR
VH 2: EVQLVQSGAEVKKPGASVKVSCKASGYTFTNYYIHWVRQAPGQGLEWIGWIYPGDGNTKYNEKFKGRATLTADTSTSTAYLELSSLRSEDTAVYYCARDSYSNYYFDYWGQGTLVTVSS
VL 2: DIVMTQSPDSLAVSLGERATINCKSSQSLLNSRTRKNYLAWYQQKPGQPPKLLIYWASTRESGVPDRFSGSGSGTDFTLTISSLQAEDVAVYYCTQSFILRTFGQGTKVEIK
Binder B1 has an EC50 of T cell activation (CD69+/CD25+), Human PBMC Donor 1, in presence of target cells [1] of 5.5 ng/mL, an EC50 of T cell activation (CD69+/CD25+), Human PBMC Donor 2, in presence of target cells [1] of 4.4 ng/mL and an EC50 of luciferase reporter activity, Jurkat/NFκBLuc, in presence of target cells [1] of 1.3 ng/mL. The luciferase activity of Jurkat/NFκBLuciferase clone 2 in the presence of a CD20 expressing target cell line, against anti-CD3 homodimer [1] was 1000 fold, the EC50 of T cell activation (CD69+/CD25+), Human PBMC Donor 1, in presence of target cells [2] was 5.5 ng/mL and the EC50 of T cell activation (CD69+/CD25+), Human PBMC Donor 2, in presence of target cells [2] was 4.4 ng/mL. For the same binder, the EC50 of luciferase reporter activity, Jurkat/NFκBLuc, in presence of target cells [2] was 1.3 ng/mL.
